Measured values: article PMC11065421, “An RNA-dependent and phase-separated active subnuclear compartment safeguards repressive chromatin domains” (Molecular Cell, 2024)
Where “and” joins values, the source holds several entries; their conditions need not be identical. Equal entries are not always repeated.

Target: the molecule itself
Test: SEC; Superose 6 Increase 3.2/300; freshly purified recombinant protein concentrated up to 1 mg/ml; absorbance at 280 nm

B1: recombinant BAZ2AN (domain or fragment, UniProt Q91YE5 1-744, looked up)
chain: MEMEANDHFNFTGLPPAPAASGLKPSPSSGEGLYTNGSPMNFPQQGKSLNGDVNVNGLSTVSHTTTSGILNSAPHSSSTSHLHHPNVAYDCLWNYSQYPSANPGNNLKDPPLLSQFPGGQYPLNGILGGNRQPSSPSHNTNLRAGSQEFWANGTQSPMGLNFDSQELYDSFPDQNFEVMPNGPPSFFTSPQTSPMLGSSIQTFAPSQDVSSDIHPDEAAEKELTSVVAENGTGLVGSLELEEEQPELKMCGYNGSVSSVESLHQEVSVLVPDPTVSCLDDPSHLPDQLEDTPILSEDSLEPFDSLAAEPVSGSLYGIDDAELMGAEDKLPLEGNPVISALDCPALSNANAFSLLADDSQTSASIFVSPTSPPVLGESVLQDNSFGLNSCSDSEQEEIETQSSNFQRPLTEPAPDQPPSTQLHPAVSPTASPAASLTASAEISPAVSPVASSPVPPEVFVAVSPASSPALPAISLEASMTTPVTSPQGSPEPSPAAAFQTVSPARKNVSSAPKARADREETTGGAVAVSGSGDVLKRRIATPEEVRLPLQHGWRREVRIKKGSHRWQGETWYYGPCGKRMKQFPEVIKYLSRNVVHSVRREHFSFSPRMPVGDFFEERDTPEGLQWVQLSAEEIPSRIQAITGKRGRPRNNEKAKNKEVPKVKRGRGRPPKIKMPELLNKTDNRLPKKLETQEILSEDDKAKMTKNKKKMRQKVQRGESQTPVQGQARNKRKQDTKSLKQKDTKK
notes: BAZ2A (TIP5) N-terminal region, aa 1-744; also called BAZ2AN-Hist; source: E. coli BL21(DE3), purified (Glutathione Sepharose, PreScission cleavage, HisTrap)
stoichiometry N: 4 units and 6 units
